Results published in patent publication US20240352134A1 (NANJING IMMUNOPHAGE BIOTECH, published 2024).

Tests used:
human CCR8 [1] = target: T1, human CCR8 (human, UniProt P51685 1-355); assay: FACS on human CCR8-expressing 293F cells
T1 construct: whole, on cells; also called hCCR8; C-C Motif Chemokine Receptor 8

human CCR8 [2] = target: T1, human CCR8; assay: cell-based or functional assay
human CCR8 [3] = target: T1, human CCR8; assay: cell-based or functional assay; remark: listed apart in the source
human CCR8 [4] = target: T1, human CCR8; assay: FACS as in Example 2; T0 (the reference itself)
human CCR8 [5] = target: T1, human CCR8; assay: FACS as in Example 2; antibody after 40° C. 1 W; ratio to T0
human CCR8 [6] = target: T1, human CCR8; assay: FACS as in Example 2; antibody after 40° C. 2 W; ratio to T0
human CCR8 [7] = target: T1, human CCR8; assay: FACS as in Example 2; antibody after 40° C. 4 W; ratio to T0
human CCR8 [8] = target: T1, human CCR8; assay: FACS as in Example 2; antibody after Oxidation 24 h; ratio to T0
human CCR8 [9] = target: T1, human CCR8; assay: FACS as in Example 2; antibody after Freeze/thaw 5FT; ratio to T0
human CCR8 [10] = target: T1, human CCR8; assay: binding affinity EC50, comparison of Table 12 (FACS on CCR8-expressing cells)
human CCR8 [11] = target: T1, human CCR8; assay: FACS on human CCR8-expressing 293F cells; remark: listed apart in the source

T1 sequence (P51685 whole entry): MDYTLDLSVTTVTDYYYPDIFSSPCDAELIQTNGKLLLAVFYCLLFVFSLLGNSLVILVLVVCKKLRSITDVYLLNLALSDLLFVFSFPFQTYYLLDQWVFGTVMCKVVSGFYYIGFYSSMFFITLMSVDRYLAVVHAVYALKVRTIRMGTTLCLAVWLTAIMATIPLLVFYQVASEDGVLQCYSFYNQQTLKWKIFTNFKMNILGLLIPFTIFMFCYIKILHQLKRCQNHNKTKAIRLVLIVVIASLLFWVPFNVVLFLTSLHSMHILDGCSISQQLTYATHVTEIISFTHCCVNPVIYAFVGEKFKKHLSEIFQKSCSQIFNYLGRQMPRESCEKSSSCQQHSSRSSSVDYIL

B1: 3F11hz0 (antibody, V domains shown)
VH: EVQLVESGGGLVQPKGSLKLSCAASGFSFNTYAMNWVRQAPGKGLEWVARIRSKSNYYATYYADSVKDRFTISRDDSESMLYLQMNNLKTEDTAMYYCVRGRELGDYYAMDYWGQGTSVTVSS
VL: DIVMTQAAPSVPVTPGESVSISCRSSKSLLHSNGNTYLYWFLQRPGQSPQLLIYRMSNLASGVPNRFSGSGSGTAFTLRISRVEAEDVGVYYCMQHLEYPFTFGSGTKLEIK
notes: same VH and VL as mouse 3F11
EC50 (human CCR8 [1]): 0.309 nM

B2: 3O20hz0 (antibody, V domains shown)
VH: EVQLVESGGGLVQPKGSLKLSCATSGFSFNAYAMNWVRQAPGKGLEWVGRIRSKSNNYATYYADSVKGRFTISRDDSKTILYLQMNTLKTEDTAIYYCVRGGYHGNSAYFDVWGTGTSVTVSS
VL: DIVMTQAAPSVPVTPGESVSISCRSSKSLLHSNGNTYLYWFLQRPGQSPQLLIYRMSNLASGVPDRFSGSGSGTAFTLRISRVEAEDVGVYYCLQHLEYPFTFGSGTKLEIK
notes: same VH and VL as mouse 3O20
EC50 (human CCR8 [1]): 0.185 nM

B3: 1G17hz3 (antibody, V domains shown)
VH: QVQLVQSGAEVKKPGASVKVSCKASGYTFADYEMHWVRQAPGQGLEWMGAIDPETGRTAYAQKFQGRVTMTADRSTSTAYMELSSLRSEDTAVYYCTRRAYWGGWGQGTLVTVSS
VL: DVVMTQSPLSLPVTLGQPASISCRSSQSLVHSSGNTYLHWYQQRPGQSPRLLIYKVSNRFSGVPDRFSGSGSGTDFTLKISRVEAEDVGVYFCSQSTHVPYTFGQGTKLEIK
notes: Humanized variant of 1G17
Calcium mobilization IC50 (human CCR8 [2]): 25.3 nM | Calcium mobilization IC50 (nM) Ratio; 40° C. 1 W (human CCR8 [3]): 3.07 | Calcium mobilization IC50 (nM) Ratio; 40° C. 2 W (human CCR8 [3]): 1.38 | Calcium mobilization IC50 (nM) Ratio; 40° C. 4 W (human CCR8 [3]): 2.35 | Calcium mobilization IC50 (nM) Ratio; Freeze/thaw 5FT (human CCR8 [3]): 0.32 | Calcium mobilization IC50 (nM) Ratio; Oxidation 24 h (human CCR8 [3]): 1.14 | Calcium mobilization IC50 (nM) Ratio; T0 (human CCR8 [3]): 1 | EC50 (human CCR8 [1]): 0.47 nM | Affinity EC50 (nM) Ratio (human CCR8 [4]): 1 | Affinity EC50 (nM) Ratio (human CCR8 [5]): 0.91 | Affinity EC50 (nM) Ratio (human CCR8 [6]): 1.31 | Affinity EC50 (nM) Ratio (human CCR8 [7]): 1.1 | Affinity EC50 (nM) Ratio (human CCR8 [8]): 1.71 | Affinity EC50 (nM) Ratio (human CCR8 [9]): 2.43

B4: 1G17hz0 (antibody, V domains shown)
VH: QVQLQQSGAELVRPGASVTLSCKASGYTFADYEMHWVKQTPVLGLEWIGAIDPETGRTAYNQKFKFKATLTADRSSSTAYMELRSLTSEDSAVYYCTRRAYWGGWGQGTTLTVSS
VL: DVVMTQTPLSLPVSLGDQASISCRSSQSLVHSSGNTYLHWYLQKPGQSPKLLIYKVSNRFSGVPDRFSGSGSGTDFTLKISRVEAEDLGVYFCSQSTHVPYTFGGGTKLEIK
notes: same VH and VL as mouse 1G17
EC50 (human CCR8 [1]): 0.451 nM

B5: TPP-23411 (antibody, V domains shown)
VH: EVQLLESGGGLVQPGGSLRLSCAASGFTFSSYGMHWVRQAPGKGLEWVSAINWNGGSTGYADSVKGRFTISRDNSKNTLYLQMNSLRAEDTAVYYCARGHHSGYDGRFFDYWGQGTLVTVSS
VL: QSVLTQPPSVSGAPGQRVTISCTGSSSNIGAGYNVHWYQQLPGTAPKLLIYTNNRRPSGVPDRFSGSKSGTSASLAISGLRSEDEADYYCAAWDASLSGWVFGGGTKLTVLG
EC50 (human CCR8 [10]): 0.65 nM

B6: 3F11hz1 (antibody, V domains shown)
VH: EVQLVESGGGLVQPGGSLKLSCAASGFSFNTYAMHWVRQASGKGLEWVGRIRSKSNYYATYYAASVKGRFTISRDDSKNTAYLQMNSLKTEDTAVYYCTRGRELGDYYAMDYWGQGTLVTVSS
VL: DIVMTQSPLSLPVTPGEPASISCRSSKSLLHSNGNTYLDWYLQKPGQSPQLLIYRMSNRASGVPDRFSGSGSGTDFTLKISRVEAEDVGVYYCMQHLEYPFTFGQGTKLEIK
notes: Humanized variant of 3F11
binding result (human CCR8 [11]): binds

B7: 3O20hz2 (antibody, V domains shown)
VH: EVQLVESGGGLVQPGGSLKLSCATSGFSFNAYAMNWVRQASGKGLEWVGRIRSKSNNYATYYAASVKGRFTISRDDSKTTLYLQMNSLKTEDTAVYYCVRGGYHGNSAYFDVWGQGTLVTVSS
VL: DIVMTQSPLSLPVTPGEPASISCRSSKSLLHSNGNTYLYWFLQKPGQSPQLLIYRMSNLASGVPDRFSGSGSGTDFTLKISRVEAEDVGVYYCLQHLEYPFTFGQGTKLEIK
notes: Humanized variant of 3O20
Calcium mobilization IC50 (human CCR8 [2]): 7.39 nM | Calcium mobilization IC50 (nM) Ratio; 40° C. 1 W (human CCR8 [3]): 3.02 | Calcium mobilization IC50 (nM) Ratio; 40° C. 2 W (human CCR8 [3]): 0.98 | Calcium mobilization IC50 (nM) Ratio; 40° C. 4 W (human CCR8 [3]): 1.86 | Calcium mobilization IC50 (nM) Ratio; Freeze/thaw 5FT (human CCR8 [3]): 1.37 | Calcium mobilization IC50 (nM) Ratio; Oxidation 24 h (human CCR8 [3]): 1.42 | Calcium mobilization IC50 (nM) Ratio; T0 (human CCR8 [3]): 1 | EC50 (human CCR8 [1]): 0.135 nM | Affinity EC50 (nM) Ratio (human CCR8 [4]): 1 | Affinity EC50 (nM) Ratio (human CCR8 [5]): 0.79 | Affinity EC50 (nM) Ratio (human CCR8 [6]): 1.14 | Affinity EC50 (nM) Ratio (human CCR8 [7]): 1.65 | Affinity EC50 (nM) Ratio (human CCR8 [8]): 2.13 | Affinity EC50 (nM) Ratio (human CCR8 [9]): 1.22

B8: 3F11hz3 (antibody, V domains shown)
VH: EVQLVESGGGLVQPGGSLKLSCAASGFTFSTYAMNWVRQASGKGLEWVGRIRSKSNYYATYYADSVKDRFTISRDDSKNTAYLQMNSLKTEDTAVYYCVRGRELGDYYAMDYWGQGTLVTVSS
VL: DIVMTQSPLSLPVTPGEPASISCRSSKSLLHSNGNTYLDWFLQKPGQSPQLLIYRMSNLASGVPDRFSGSGSGTDFTLKISRVEAEDVGVYYCMQHLEYPFTFGQGTKLEIK
notes: Humanized variant of 3F11
binding result (human CCR8 [11]): binds

B9: 3F11hz6 (antibody, V domains shown)
VH: EVQLVESGGGLVQPGGSLKLSCAASGFSFNTYAMNWVRQASGKGLEWVGRIRSKSNYYATYYAASVKGRFTISRDDSKNTAYLQMNSLKTEDTAVYYCVRGRELGDYYAMDYWGQGTLVTVSS
VL: DIVMTQSPLSLPVTPGEPASISCRSSKSLLHSSGNTYLDWFLQKPGQSPQLLIYRMSNRASGVPDRFSGSGSGTDFTLKISRVEAEDVGVYYCMQHLEYPFTFGQGTKLEIK
notes: Humanized variant of 3F11
binding result (human CCR8 [11]): binds

B10: 3F11hz5 (antibody, V domains shown)
VH: EVQLVESGGGLVQPGGSLKLSCAASGFSFNTYAMNWVRQASGKGLEWVGRIRSKSNYYATYYAASVKGRFTISRDDSKNTAYLQMNSLKTEDTAVYYCVRGRELGDYYAMDYWGQGTLVTVSS
VL: DIVMTQSPLSLPVTPGEPASISCRSSKSLLHSNGNTYLEWYLQKPGQSPQLLIYRMSNRASGVPDRFSGSGSGTDFTLKISRVEAEDVGVYYCMQHLEYPFTFGQGTKLEIK
notes: Humanized variant of 3F11
binding result (human CCR8 [11]): binds
